Among the data in the RNAGym collection of RNA variant scans (doi:10.7554/elife.80360) are self-cleavage values, retold here.

B1: HDV Ribozyme (parent)
chain: GGCCGGCAUGGUCCCAGCCUCCUCGCUGGCGCCGGCUGGGCAACAUUCCGAGGGGACCGUCCCCUCGGUAAUGGCGAAUGGGACCCA

Variants of B1 are the subject of this series. In words: self-cleavage, relative activity (ratio to wild type); higher = more cleavage; co-transcriptional.
Take GGCCGGCAUGGUCCGAGCCUCCUCGCUGGCGCCGGCUGGGCAACAUUCCGAGGGGACCGUCCCCUCGGUAAUGGCGAAUGGUACCCA [C15G G82U]: the self-cleavage came out at 0.229.
For GGCGGGCAUGGUCCCAGCCUCCUCGCUGGCGCCGGCUGGGCAACAUUCCGAGGAGACCGUCCCCUCGGUAAUGGCGAAUGGGACCCA [C4G G54A], the self-cleavage worked out at 0.288.
In the case of GGCCGGCAUGGUCCCAGCCUCCUCGCUGGCGCCGGCUGGGAAACAUUCCGAGGGGACCGUCCCCUCGGUAAUGGCGAAUGGGGCCCA [C41A A83G], the self-cleavage came out at 0.732.
On to GGCCGGCAUGGUCCCUGCCUCCUCGCUGGCGCCGGCUGGGCAACAUGCCGAGGGGACCGUCCCCUCGGUAAUGGCGAAUGGGACCCA [A16U U47G], for which the self-cleavage was determined as 0.692.
Next, GGCCGGCAUGGUCCCAGCCUCCUCGCUGGCGCCGGCUGGGCAACAUUCCGAGGGGACCGGCCCGUCGGUAAUGGCGAAUGGGACCCA [U60G C64G]: 0.919.
Next, GGCCGGCAUGGUCCCAGCCUCCUCGCUGGCGCCGGCUGGGCAACAUUCCGAGUGGACCGUCCCCUCUGUAAUGGCGAAUGGGACCCA [G53U G67U]: 0.715; GGCCGGCAUGGUCACAGCCUCCUCGCUGGCGCCGGCUGGGCAACAUUCCAAGGGGACCGUCCCCUCGGUAAUGGCGAAUGGGACCCA [C14A G50A]: 0.736.
With GGCCGGUAUGGUCCCAGCCUCCUUGCUGGCGCCGGCUGGGCAACAUUCCGAGGGGACCGUCCCCUCGGUAAUGGCGAAUGGGACCCA [C7U C24U], the self-cleavage came to 0.261.
Take GGCCGGCAUGGUCCCAGCCUCCUCGCGGGCGCCGGCUGGGCAACAUUCCGAGGGGACCGUCCCCUCGGUAAUGGCGAAUGAGACCCA [U27G G81A]: the self-cleavage was 0.597.
Next, GGCCGGCAUGGUCCCAGCCUCCUUGCUGGCGCCGGCUGGGCAACAUUCCGAGGGGACCGUCCCCUCGGUAAUGGCGAAUGGGACACA [C24U C85A]: 0.831; GGCCGGCAUGGUCCCAGCCUCCUCGCUGGCCCCGGCUUGGCAACAUUCCGAGGGGACCGUCCCCUCGGUAAUGGCGAAUGGGACCCA [G31C G38U]: 0.123.
Regarding GGCCGGCAUGGUCCCAGACUCCUCGCUGGCGCCGGCUGGGCAACAUUCCGAGGGGACCGUCCCCUCCGUAAUGGCGAAUGGGACCCA [C18A G67C], the self-cleavage stood at 0.123.
Next, GGCCGGCAUGGUCCCAGCCUCCUCGCUGGCGCCGGCUGGGAAACAUUCCGAGGGGACCGUCCCCUCGGUAAUGGCGAAAGGGACCCA [C41A U79A]: 0.656.
Regarding GGCCGGCAUGGACCCAGCCUCCUCGCUGGCGCCGGCUGGGCAACAUUCCGAGGGGACCGUCCCCUCGGUAAUGGCGAAUGGAACCCA [U12A G82A], the self-cleavage was 0.0489.
Consider GGCCGGCAUGGUCCCAGCCUCCUCGCUGGCGCCGGCUUGGCAACGUUCCGAGGGGACCGUCCCCUCGGUAAUGGCGAAUGGGACCCA [G38U A45G], for which the self-cleavage stood at 0.0426.
As for GGCCGGCAUGGUCGCAGCCUCCUCGCUGGCGCCGGCUCGGCAACAUUCCGAGGGGACCGUCCCCUCGGUAAUGGCGAAUGGGACCCA [C14G G38C], the self-cleavage amounted to 0.142.
The value for UGCCGGCAUGGUCCCAGCCUCCUCGCUGGCGCCGGCUGGGCAACAUUCCUAGGGGACCGUCCCCUCGGUAAUGGCGAAUGGGACCCA [G1U G50U] was 0.466.
For GGCCGGCAUGGUUCCAGCCUCCUCGCUGGCGCCGGCUGGGCAACAUUCCGAGGGGACCGUCCCCUCGGUAAUGGCGAAUUGGACCCA [C13U G80U], the self-cleavage amounted to 0.185.
In the case of GGCCGGCAUGGUCCCAGCCACCUCGCUGGCGCCAGCUGGGCAACAUUCCGAGGGGACCGUCCCCUCGGUAAUGGCGAAUGGGACCCA [U20A G34A], the self-cleavage amounted to 0.0992.
Take GGCCGGCAUGGUCCCAGCCUCCUCGCUGGCGCCGGCUGGGCAACAUUCCGAGGGGACCGUCCCCUCGGUAAUGCGGAAUGGGACCCA [G74C C75G]: the self-cleavage was 0.0386.
For GGCCGGCAUGGUCCCAGCCUCCUCGCUGGCGCCGGCUGGGCAACAGUCCGAUGGGACCGUCCCCUCGGUAAUGGCGAAUGGGACCCA [U46G G52U], the self-cleavage was found to be 0.237.
On to GGCCGGCAUGGUCCCAGCCUCCACGCUGGCGCCGGCUGGGCAACAUUCCGAGGGGACCGUCCCAUCGGUAAUGGCGAAUGGGACCCA [U23A C64A], for which the self-cleavage came out at 0.814.
In the case of GGCCGGCAUGGUCCCAGCCUCCUCCCUGGCGCCGGCUGGCCAACAUUCCGAGGGGACCGUCCCCUCGGUAAUGGCGAAUGGGACCCA [G25C G40C], the self-cleavage came out at 0.156.
For GGCCGGCAUGGUCCCAGCCUCCUCGCUGGGGCCGGAUGGGCAACAUUCCGAGGGGACCGUCCCCUCGGUAAUGGCGAAUGGGACCCA [C30G C36A], the self-cleavage was 0.0554.
As to GGCCGGCAUGGUCCCAGCCUCCUCGCUGGCCCCGGCUGGGCAACUUUCCGAGGGGACCGUCCCCUCGGUAAUGGCGAAUGGGACCCA [G31C A45U], the self-cleavage amounted to 0.0437.
As to GGCCGGCAUGGUCCCAGCCGCCUCGCUGGCGCCGGCUGGGCAACAUUCCGAGGGGACCGUCCCCACGGUAAUGGCGAAUGGGACCCA [U20G U65A], the self-cleavage came out at 0.138.
As to GGCCGGCAUGGUCCCAGCCUCCUCGCUGGCGCCGGCUGGGCAACAUUCAGCGGGGACCGUCCCCUCGGUAAUGGCGAAUGGGACCCA [C49A A51C], the self-cleavage amounted to 0.297.
In the case of GGCCGGCAUGGUCCCAGCCCCCUCGCUGACGCCGGCUGGGCAACAUUCCGAGGGGACCGUCCCCUCGGUAAUGGCGAAUGGGACCCA [U20C G29A], the self-cleavage worked out at 0.0773.
As for GGCCGGCAUGGUGCCAGCCUCCUCGCUGGCGCCGGCUGGGCAACAUUCCGAGGGGACCGUCCCCUCGGUAGUGGCGAAUGGGACCCA [C13G A71G], the self-cleavage was determined as 0.
Next, GGCCUGCAUGAUCCCAGCCUCCUCGCUGGCGCCGGCUGGGCAACAUUCCGAGGGGACCGUCCCCUCGGUAAUGGCGAAUGGGACCCA [G5U G11A]: 0.18; GGCCGGCAUGGUCCCAGGCUCCUCGCUGGCGCCGGCUGGGCAACAUUCCGAGGGGACCGUCCCCUCGGUAAUGGCGAAUCGGACCCA [C18G G80C]: 0.0707.
With GGCCCGCAUGGUCCCAGCCUCCUCGCUGGCGCCGGCUGGGCAACAGUCCGAGGGGACCGUCCCCUCGGUAAUGGCGAAUGGGACCCA [G5C U46G], the self-cleavage came to 0.0573.
